Assay results: IntAct's records for PubMed 31515488

B1: Notch homolog 2 N-terminal-like protein A (Homo sapiens), Q7Z3S9 (parent)
chain: MCVTYHNGTGYCKCPEGFLGEYCQHRDPCEKNRCQNGGTCVAQAMLGKATCRCASGFTGEDCQYSTSHPCFVSRPCLNGGTCHMLSRDTYECTCQVGFTGKECQWTDACLSHPCANGSTCTTVANQFSCKCLTGFTGQKCETDVNECDIPGHCQHGGTCLNLPGSYQCQCLQGFTGQYCDSLYVPCAPSPCVNGGTCRQTGDFTFECNCLPETVRRGTELWERDREVWNGKEHDEN
partner: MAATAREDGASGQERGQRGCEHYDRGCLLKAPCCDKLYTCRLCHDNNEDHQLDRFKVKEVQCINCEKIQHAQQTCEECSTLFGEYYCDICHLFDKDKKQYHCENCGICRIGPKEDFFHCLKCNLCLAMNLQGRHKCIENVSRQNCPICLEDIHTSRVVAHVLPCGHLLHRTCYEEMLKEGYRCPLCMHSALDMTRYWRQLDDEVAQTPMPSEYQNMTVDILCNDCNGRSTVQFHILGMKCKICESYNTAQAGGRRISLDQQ
B2: E3 ubiquitin-protein ligase LNX (Homo sapiens), Q8TBB1 (parent)
chain: MNQPESANDPEPLCAVCGQAHSLEENHFYSYPEEVDDDLICHICLQALLDPLDTPCGHTYCTLCLTNFLVEKDFCPMDRKPLVLQHCKKSSILVNKLLNKLLVTCPFREHCTQVLQRCDLEHHFQTSCKGASHYGLTKDRKRRSQDGCPDGCASLTATAPSPEVSAAATISLMTDEPGLDNPAYVSSAEDGQPAISPVDSGRSNRTRARPFERSTIRSRSFKKINRALSVLRRTKSGSAVANHADQGRENSENTTAPEVFPRLYHLIPDGEITSIKINRVDPSESLSIRLVGGSETPLVHIIIQHIYRDGVIARDGRLLPGDIILKVNGMDISNVPHNYAVRLLRQPCQVLWLTVMREQKFRSRNNGQAPDAYRPRDDSFHVILNKSSPEEQLGIKLVRKVDEPGVFIFNVLDGGVAYRHGQLEENDRVLAINGHDLRYGSPESAAHLIQASERRVHLVVSRQVRQRSPDIFQEAGWNSNGSWSPGPGERSNTPKPLHPTITCHEKVVNIQKDPGESLGMTVAGGASHREWDLPIYVISVEPGGVISRDGRIKTGDILLNVDGVELTEVSRSEAVALLKRTSSSIVLKALEVKEYEPQEDCSSPAALDSNHNMAPPSDWSPSWVMWLELPRCLYNCKDIVLRRNTAGSLGFCIVGGYEEYNGNKPFFIKSIVEGTPAYNDGRIRCGDILLAVNGRSTSGMIHACLARLLKELKGRITLTIVSWPGTFL
partner: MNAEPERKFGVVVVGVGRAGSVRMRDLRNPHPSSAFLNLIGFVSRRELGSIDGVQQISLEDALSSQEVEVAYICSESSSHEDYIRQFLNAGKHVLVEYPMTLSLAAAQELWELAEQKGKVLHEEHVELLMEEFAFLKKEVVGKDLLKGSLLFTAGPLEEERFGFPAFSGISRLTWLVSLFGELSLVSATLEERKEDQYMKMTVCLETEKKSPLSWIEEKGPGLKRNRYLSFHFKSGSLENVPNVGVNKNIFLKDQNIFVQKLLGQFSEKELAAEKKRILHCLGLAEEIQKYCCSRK
B3: Protein phosphatase 1 regulatory inhibitor subunit 16B (Homo sapiens), Q96T49 (parent)
chain: MASHVDLLTELQLLEKVPTLERLRAAQKRRAQQLKKWAQYEQDLQHRKRKHERKRSTGGRRKKVSFEASVALLEASLRNDAEEVRYFLKNKVSPDLCNEDGLTALHQCCIDNFEEIVKLLLSHGANVNAKDNELWTPLHAAATCGHINLVKILVQYGADLLAVNSDGNMPYDLCEDEPTLDVIETCMAYQGITQEKINEMRVAPEQQMIADIHCMIAAGQDLDWIDAQGATLLHIAGANGYLRAAELLLDHGVRVDVKDWDGWEPLHAAAFWGQMQMAELLVSHGASLSARTSMDEMPIDLCEEEEFKVLLLELKHKHDVIMKSQLRHKSSLSRRTSSAGSRGKVVRRASLSDRTNLYRKEYEGEAILWQRSAAEDQRTSTYNGDIRETRTDQENKDPNPRLEKPVLLSEFPTKIPRGELDMPVENGLRAPVSAYQYALANGDVWKVHEVPDYSMAYGNPGVADATPPWSSYKEQSPQTLLELKRQRAAAKLLSHPFLSTHLGSSMARTGESSSEGKAPLIGGRTSPYSSNGTSVYYTVTSGDPPLLKFKAPIEEMEEKVHGCCRIS
partner: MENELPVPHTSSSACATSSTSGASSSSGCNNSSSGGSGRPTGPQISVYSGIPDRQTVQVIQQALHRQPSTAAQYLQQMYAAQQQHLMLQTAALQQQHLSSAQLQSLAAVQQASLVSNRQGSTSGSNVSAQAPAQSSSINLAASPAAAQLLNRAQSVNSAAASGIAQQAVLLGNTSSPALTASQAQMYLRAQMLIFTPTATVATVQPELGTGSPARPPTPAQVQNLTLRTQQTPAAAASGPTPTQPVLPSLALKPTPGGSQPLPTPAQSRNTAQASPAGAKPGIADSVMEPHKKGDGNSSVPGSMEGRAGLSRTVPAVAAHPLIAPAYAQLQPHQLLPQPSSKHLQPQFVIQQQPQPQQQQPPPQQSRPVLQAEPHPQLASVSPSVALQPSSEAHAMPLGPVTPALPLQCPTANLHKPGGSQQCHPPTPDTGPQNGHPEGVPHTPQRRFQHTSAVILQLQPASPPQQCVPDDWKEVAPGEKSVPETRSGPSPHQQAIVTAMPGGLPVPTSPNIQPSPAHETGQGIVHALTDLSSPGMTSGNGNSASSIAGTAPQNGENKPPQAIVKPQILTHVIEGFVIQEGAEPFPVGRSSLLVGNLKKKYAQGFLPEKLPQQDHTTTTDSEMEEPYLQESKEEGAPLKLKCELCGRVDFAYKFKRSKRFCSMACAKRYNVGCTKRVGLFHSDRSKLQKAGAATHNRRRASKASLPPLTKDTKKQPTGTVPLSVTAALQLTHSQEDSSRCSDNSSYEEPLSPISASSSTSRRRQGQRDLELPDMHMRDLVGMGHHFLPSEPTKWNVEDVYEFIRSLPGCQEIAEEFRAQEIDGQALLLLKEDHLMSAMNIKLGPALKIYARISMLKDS
B4: AN1-type zinc finger protein 2B (Homo sapiens), Q8WV99 (parent)
chain: MEFPDLGAHCSEPSCQRLDFLPLKCDACSGIFCADHVAYAQHHCGSAYQKDIQVPVCPLCNVPVPVARGEPPDRAVGEHIDRDCRSDPAQQKRKIFTNKCERAGCRQREMMKLTCERCSRNFCIKHRHPLDHDCSGEGHPTSRAGLAAISRAQAVASTSTVPSPSQTMPSCTSPSRATTRSPSWTAPPVIALQNGLSEDEALQRALEMSLAETKPQVPSCQEEEDLALAQALSASEAEYQRQQAQSRSSKPSNCSLC
partner: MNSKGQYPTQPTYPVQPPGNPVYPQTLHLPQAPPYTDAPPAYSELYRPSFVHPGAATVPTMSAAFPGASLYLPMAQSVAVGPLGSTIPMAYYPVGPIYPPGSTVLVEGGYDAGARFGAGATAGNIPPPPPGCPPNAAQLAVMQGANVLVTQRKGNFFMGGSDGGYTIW
B5: Zinc finger CCCH-type with G patch domain-containing protein (Homo sapiens), Q8N5A5 (parent)
chain: MDEESLESALQTYRAQLQQVELALGAGLDSSEQADLRQLQGDLKELIELTEASLVSVRKSSLLAALDEERPGRQEDAEYQAFREAITEAVEAPAAARGSGSETVPKAEAGPESAAGGQEEEEGEDEEELSGTKVSAPYYSSWGTLEYHNAMVVGTEEAEDGSAGVRVLYLYPTHKSLKPCPFFLEGKCRFKENCRFSHGQVVSLDELRPFQDPDLSSLQAGSACLAKHQDGLWHAARITDVDNGYYTVKFDSLLLREAVVEGDGILPPLRTEATESDSDSDGTGDSSYARVVGSDAVDSAQSSALCPSLAVVGSDAVDSGTCSSAFAGWEVHTRGIGSRLLTKMGYEFGKGLGRHAEGRVEPIHAVVLPRGKSLDQCVETLQKQTRVGKAGTNKPPRCRGRGARPGGRPAPRNVFDFLNEKLQGQAPGALEAGAAPAGRRSKDMYHASKSAKRALSLRLFQTEEKIERTQRDIRSIQEALARNAGRHSVASAQLQEKLAGAQRQLGQLRAQEAGLQQEQRKADTHKKMTEF
partner: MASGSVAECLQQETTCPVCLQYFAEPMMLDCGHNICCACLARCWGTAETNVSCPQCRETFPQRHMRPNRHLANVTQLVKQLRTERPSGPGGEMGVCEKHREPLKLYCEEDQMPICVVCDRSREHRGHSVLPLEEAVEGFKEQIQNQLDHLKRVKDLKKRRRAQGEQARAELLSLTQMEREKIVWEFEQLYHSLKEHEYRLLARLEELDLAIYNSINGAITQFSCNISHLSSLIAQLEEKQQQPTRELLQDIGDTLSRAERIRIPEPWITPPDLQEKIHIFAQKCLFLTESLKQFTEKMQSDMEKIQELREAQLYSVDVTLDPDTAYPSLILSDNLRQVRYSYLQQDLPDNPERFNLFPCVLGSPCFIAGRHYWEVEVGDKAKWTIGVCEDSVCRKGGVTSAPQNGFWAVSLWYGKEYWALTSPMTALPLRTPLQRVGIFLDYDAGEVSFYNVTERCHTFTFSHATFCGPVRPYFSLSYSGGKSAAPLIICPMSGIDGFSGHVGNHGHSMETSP

Variants of: B1
Conditions: with zn363_human RCHY1, Q96PM5

| effect of a mutation on the interaction | Variant |
| --- | --- |
| with no effect | A115T |
| with no effect | R74Q |

Variants of: B2
Conditions: with biea_human BLVRA

| effect of a mutation on the interaction | Variant |
| --- | --- |
| with no effect | R342H |

Variants of: B3
Conditions: with phc2_human PHC2, Q8IXK0

| effect of a mutation on the interaction | Variant |
| --- | --- |
| with no effect | P519S |

Variants of: B4
Conditions: with dazp2_human DAZAP2, Q15038

| effect of a mutation on the interaction | Variant |
| --- | --- |
| with no effect | P71H |

Variants of: B5
Conditions: with tri27_human TRIM27, P14373

| effect of a mutation on the interaction | Variant |
| --- | --- |
| with no effect | S61R |
